Sequences and labels used below:
T1: human G-CSF receptor (human, UniProt Q99062 25-836)
T1 sequence (looked up): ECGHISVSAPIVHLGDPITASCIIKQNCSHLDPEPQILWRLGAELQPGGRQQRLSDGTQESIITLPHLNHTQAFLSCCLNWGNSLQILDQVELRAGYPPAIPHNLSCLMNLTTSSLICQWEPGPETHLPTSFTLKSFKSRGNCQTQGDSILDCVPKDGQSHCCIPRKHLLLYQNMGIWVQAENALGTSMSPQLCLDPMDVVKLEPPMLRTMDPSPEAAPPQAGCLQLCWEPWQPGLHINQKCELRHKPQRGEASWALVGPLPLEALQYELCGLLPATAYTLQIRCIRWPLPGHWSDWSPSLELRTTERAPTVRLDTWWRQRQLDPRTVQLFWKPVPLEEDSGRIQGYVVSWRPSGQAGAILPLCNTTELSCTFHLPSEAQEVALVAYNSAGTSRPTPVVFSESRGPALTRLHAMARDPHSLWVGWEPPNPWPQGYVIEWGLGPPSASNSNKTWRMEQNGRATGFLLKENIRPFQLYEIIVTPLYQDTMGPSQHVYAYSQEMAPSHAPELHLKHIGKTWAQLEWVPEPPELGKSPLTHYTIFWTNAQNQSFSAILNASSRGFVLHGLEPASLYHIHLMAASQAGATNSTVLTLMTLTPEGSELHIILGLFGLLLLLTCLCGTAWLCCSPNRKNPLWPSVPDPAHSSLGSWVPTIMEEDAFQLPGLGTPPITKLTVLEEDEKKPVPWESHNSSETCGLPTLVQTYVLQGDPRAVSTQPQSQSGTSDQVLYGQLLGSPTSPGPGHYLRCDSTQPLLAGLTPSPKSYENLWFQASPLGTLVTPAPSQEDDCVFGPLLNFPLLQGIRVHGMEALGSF

B1: G-CSF receptor agonist expressed from pMON25187 (ligand)
chain: ATQGAMPAFASAFQRRAGGVLVASHLQSFLEVSYRVLRHLAQPSGGSGGSQSFLLKSLEQVRKIQGDGAALQEKLCATYKLCHPEELVLLGHSLGIPWAPLSSCPSQALQLAGCLSQLHSGLFLYQGLLQALEGISPELGPTLDTLQLDVADFATTIWQQMEELGMAPALQP
B2: G-CSF receptor agonist expressed from pMON3455 (ligand)
chain: AYKLCHPEELVLLGHSLGIPWAPLSSCPSQALQLAGCLSQLHSGLFLYQGLLQALEGISPELGPTLDTLQLDVADFATTIWQQMEELGMAPALQPTQGAMPAFASAFQRRAGGVLVASHLQSFLEVSYRVLRHLAQPSGGSGGSQSFLLKSLEQVRKIQGDGAALQEKLCAT
B3: G-CSF receptor agonist expressed from pMON25186 (ligand)
chain: AMAPALQPTQGAMPAFASAFQRRAGGVLVASHLQSFLEVSYRVLRHLAQPSGGSGGSQSFLLKSLEQVRKIQGDGAALQEKATYKLCHPEELVLLGHSLGIPWAPLSSCPSQALQLAGCLSQLHSGLFLYQGLLQALEGISPELGPTLDTLQLDVADFATTIWQQMEELG
B4: G-CSF receptor agonist expressed from pMON3499 (ligand)
chain: LLGHSLGIPWAPLSSCPSQALQLAGCLSQLHSGLFLYQGLLQALEGISPELGPTLDTLQLDVADFATTIWQQMEELGMAPALQPTQGAMPAFASAFQRRAGGVLVASHLQSFLEVSYRVLRHLAQPTPLGPASSLPQSFLLKSLEQVRKIQGDGAALQEKLCATYKLCHPEELV
B5: G-CSF receptor agonist expressed from pMON3450 (ligand)
chain: AYKLCHPEELVLLGHSLGIPWAPLSSCPSQALQLAGCLSQLHSGLFLYQGLLQALEGISPELGPTLDTLQLDVADFATTIWQQMEELGMAPALQPTQGAMPAFASAFQRRAGGVLVASHLQSFLEVSYRVLRHLAQPTPLGPASSLPQSFLLKSLEQVRKIQGDGAALQEKLCAT
B6: G-CSF receptor agonist expressed from pMON25183 (ligand)
chain: ATQGAMPAFASAFQRRAGGVLVASHLQSFLEVSYRVLRHLAQPTPLGPASSLPQSFLLKSLEQVRKIQGDGAALQEKLCATYKLCHPEELVLLGHSLGIPWAPLSSCPSQALQLAGCLSQLHSGLFLYQGLLQALEGISPELGPTLDTLQLDVADFATTIWQQMEELGMAPALQP
B7: G-CSF receptor agonist expressed from pMON25188 (ligand)
chain: ASAFQRRAGGVLVASHLQSFLEVSYRVLRHLAQPSGGSGGSQSFLLKSLEQVRKIQGDGAALQEKLCATYKLCHPEELVLLGHSLGIPWAPLSSCPSQALQLAGCLSQLHSGLFLYQGLLQALEGISPELGPTLDTLQLDVADFATTIWQQMEELGMAPALQPTQGAMPAFA
B8: G-CSF receptor agonist expressed from pMON25184 (ligand)
chain: ASAFQRRAGGVLVASHLQSFLEVSYRVLRHLAQPTPLGPASSLPQSFLLKSLEQVRKIQGDGAALQEKLCATYKLCHPEELVLLGHSLGIPWAPLSSCPSQALQLAGCLSQLHSGLFLYQGLLQALEGISPELGPTLDTLQLDVADFATTIWQQMEELGMAPALQPTQGAMPAFA
B9: G-CSF receptor agonist expressed from pMON25182 (ligand)
chain: AMAPALQPTQGAMPAFASAFQRRAGGVLVASHLQSFLEVSYRVLRHLAQPTPLGPASSLPQSFLLKSLEQVRKIQGDGAALQEKLCATYKLCHPEELVLLGHSLGIPWAPLSSCPSQALQLAGCLSQLHSGLFLYQGLLQALEGISPELGPTLDTLQLDVADFATTIWQQMEELG

The text below walks through data of patent publication US6358505 (dated 2002).

The target in this test is T1, human G-CSF receptor. Kind of test: cell-based or functional assay.
“native G-CSF (from UniProt P09919 31-204) (ligand)” had an EC50 (pM), Baf/3-G-CSF cell proliferation assay of 60 pM.
For the molecule B1, the “EC50 (pM), Baf/3-G-CSF cell proliferation assay” value (“EC50 (pM)” below) amounted to 83 pM.
In the case of B2, the “EC50 (pM)” value is 102 pM.
The value for B3 was 92 pM; that for B4 was 137 pM.
The value for B5 was 121 pM; that for B6 was 58 pM; that for B7 was 41 pM.
The result for B8 reads 70 pM.
In the case of B9, the “EC50 (pM)” value amounted to 38 pM.
